# Measured values taken from the supplement of paper PMC7125110.
# ± gives the standard error. This sample holds only a part of the variants without activity.
# B1: glmS ribozyme (parent)
# chain: AUAAAAGCGCCAGAACUACAGAAAUGUAGUUGACGAGGAGGAGGUUUAUCGAAUUUUCGGCGGAUGCCUCCAAA
# Variants of: B1
# Experiment: self-cleavage kobs at 2500 uM GlcN6P; higher = faster cleavage; RNA array
# Conditions: with glucosamine-6-phosphate
# Summary of the method: (§1)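 Tracking of barcoded ribozyme variants used a hybridised Cy3 probe at 37 °C, after in situ transcription by E. coli RNA polymerase on sequenced MiSeq chips. The flowed solution held 40 μM to 10 mM glucosamine-6-phosphate in HEPES/KCl/Mg(OAc)2 buffer, and imaging ran over ~14 h. kobs was taken from exponential decay fits of normalised per-tile medians, and kcat and KM from weighted Michaelis–Menten fits.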
row,Variant,self-cleavage kobs at 2500 uM GlcN6P
1,U30A A42C U45G U65G C70G,0.000761 ± 0.00026 s⁻¹
2,C34U A39C G59A,< 1e-05 s⁻¹
3,A33U A53G G62C U65C,< 1e-05 s⁻¹
4,C34A G38U C50G,9.01e-05 ± 3e-05 s⁻¹
5,C16U U57A G59C,< 1e-05 s⁻¹
6,G32A U47A C70G,4.84e-05 ± 2.3e-05 s⁻¹
7,G32U A33U G41U,< 1e-05 s⁻¹
8,C34A G37U A39U U57C C67A,< 1e-05 s⁻¹
9,C34U G37A A39C,< 1e-05 s⁻¹
10,A15G G29U A39G C67U,0.000169 ± 5.3e-05 s⁻¹
11,G29U U47G C50G G63C,0.000136 ± 5.4e-05 s⁻¹
12,G29U U45C U46G,6.29e-05 ± 2.8e-05 s⁻¹
13,A33U G51C A53C,< 1e-05 s⁻¹
14,G32A U69C,0.000191 ± 7.8e-05 s⁻¹
15,U30C G40A G43A C68A,< 1e-05 s⁻¹
16,A33C C34A G62U C71U,< 1e-05 s⁻¹
17,G26U G32C G35U G38U G63C,< 1e-05 s⁻¹
18,G29A U31G U54G,6.58e-05 ± 3.2e-05 s⁻¹
19,U30A C50A C68U,4.96e-05 ± 2.3e-05 s⁻¹
20,U31C G41C U45A A52G C61G,< 1e-05 s⁻¹
21,G32U U57A C61A,< 1e-05 s⁻¹
22,G29U G35A A42U,< 1e-05 s⁻¹
23,G29U C58G C71A,0.000118 ± 3.2e-05 s⁻¹
24,C34U U54G G63U,< 1e-05 s⁻¹
25,U30G G38A U46G,< 1e-05 s⁻¹
26,G29C G62C U65A,< 1e-05 s⁻¹
27,A15G G38U A52U,< 1e-05 s⁻¹

row,Variant,self-cleavage kobs at 2500 uM GlcN6P
1,C16U G29U C70G C71A,7.2e-05 ± 1.7e-05 s⁻¹
2,G32A A33U G51U,< 1e-05 s⁻¹
3,C16A G37U C61G U69G,5.77e-05 ± 1.7e-05 s⁻¹
4,G35U U49C C50U C58G C61U,< 1e-05 s⁻¹
5,G29C U30G A39G,0.00224 ± 0.00066 s⁻¹
6,G32A A39U U69A,< 1e-05 s⁻¹
7,G32A G35C G44C U56G,< 1e-05 s⁻¹
8,G32U C50U,< 1e-05 s⁻¹
9,U31G C58A C67G,6.38e-05 ± 2e-05 s⁻¹
10,G29U G32A A53C,0.000152 ± 3e-05 s⁻¹
11,A15U G32U A36G A64G C68U,< 1e-05 s⁻¹
12,A15U A39C U45A,0.000454 ± 0.00014 s⁻¹
13,G35U U45C G51C G59U,< 1e-05 s⁻¹
14,C16A G37U G41A,< 1e-05 s⁻¹
15,G32U G35A A64G C71U,< 1e-05 s⁻¹
16,C16U A36U A39U A52U,< 1e-05 s⁻¹
17,U30C G37C G38C,< 1e-05 s⁻¹
18,G32A A39U U56A,5.98e-05 ± 1.5e-05 s⁻¹
19,C16U A36U G38C G60C,< 1e-05 s⁻¹
20,C19A A53C C71A,0.000384 ± 0.00012 s⁻¹
21,G35U U56A C71U,< 1e-05 s⁻¹
22,A33U C67A U69A,< 1e-05 s⁻¹
23,G32U G35C U46G,< 1e-05 s⁻¹
24,G35A U56A C68G,< 1e-05 s⁻¹
25,U30G U49G U54A,4.83e-05 ± 2.3e-05 s⁻¹
26,U31C A64C U65G,< 1e-05 s⁻¹
27,U30C U55A U69G,7.73e-05 ± 1.4e-05 s⁻¹

row,Variant,self-cleavage kobs at 2500 uM GlcN6P
1,G32A C34G C71U,< 1e-05 s⁻¹
2,A15U C50U U54C G59C,< 1e-05 s⁻¹
3,C16U U57A,6.81e-05 ± 2.8e-05 s⁻¹
4,A15U A33C A39G C71G,< 1e-05 s⁻¹
5,U30A A33U C34A A36C G37C U57G,< 1e-05 s⁻¹
6,G32A U57C,5.22e-05 ± 1.9e-05 s⁻¹
7,C19A C34U U45A A48U,< 1e-05 s⁻¹
8,G35C A48G A53U,< 1e-05 s⁻¹
9,A15G G44U U54C,0.00016 ± 3.1e-05 s⁻¹
10,G29U G37A G38C G60U,< 1e-05 s⁻¹
11,C34A U69A,< 1e-05 s⁻¹
12,G35A G38C C58U,< 1e-05 s⁻¹
13,A15U U31G G40A,0.000101 ± 2.5e-05 s⁻¹
14,A15G U30G A64G,0.00272 ± 0.00073 s⁻¹
15,G35U U54C C58A,< 1e-05 s⁻¹
16,G32U A48U C67U,< 1e-05 s⁻¹
17,U31C G37A G59A C61U G66A,< 1e-05 s⁻¹
18,C34A U49G,< 1e-05 s⁻¹
19,G26U U30A A52G C71G,0.000299 ± 0.00014 s⁻¹
20,G29C A42U U47A,< 1e-05 s⁻¹
21,A33C G41C C67G,< 1e-05 s⁻¹
22,C16A A36C A42C U55C U56A U57G C58U C71G,< 1e-05 s⁻¹
23,G29C C34A U47A U56C,< 1e-05 s⁻¹
24,G32U G59A C68G,0.000713 ± 0.00028 s⁻¹
25,A15G G29U U47G U54A,0.000248 ± 6.2e-05 s⁻¹

# Variants of: B1
# Experiment: self-cleavage kobs at 10000 uM GlcN6P; higher = faster cleavage; RNA array
# Conditions: with glucosamine-6-phosphate
# Summary of the method: as §1
row,Variant,self-cleavage kobs at 10000 uM GlcN6P
1,G32A U69C,0.000717 ± 0.00016 s⁻¹
2,C34U U54G G63U,< 1e-05 s⁻¹
3,G32U C50U,< 1e-05 s⁻¹
4,G29U G32A A53C,0.000364 ± 0.0001 s⁻¹
5,U30C G37C G38C,< 1e-05 s⁻¹
6,C16U U57A,0.000194 ± 4.1e-05 s⁻¹
7,U30A A33U C34A A36C G37C U57G,< 1e-05 s⁻¹
8,U31C G37A G59A C61U G66A,< 1e-05 s⁻¹
